Source: the Human Domainome abundance scans (Beltran et al. 2025)

B1: Tumor protein 63, residues 545 to 610; numbered along this chain, Q9H3D4 (parent)
chain: TDCSIVSFLARLGCSSCLDYFTTQGLTTIYQIEHYSMDDLASLKIPEQFRHAIWKGILDHRQLHEF

Variants of: B1
Assay: abundance fitness (aPCA) (normalised: wild type 0, dead -1); higher = more abundant; growth selection in yeast, the domain comes from the species named
Details: Homo sapiens

Abundance fitness: each site, then its substitutions
D39: I -0.449, Q -0.032, T -0.124, A -0.108, L -0.238, E -0.047, R -0.171, P -0.864, H -0.163, S -0.143, K -0.093, Y -0.437, V -0.265, W -0.554, F -0.478
S36: N 0.009, R -0.071, Q -0.049, E -0.014, I -0.188, P -0.608, A -0.062, L -0.177, G -0.028, Y -0.311, H -0.13, M -0.096, F -0.379, V -0.09, W -0.436, T -0.023
E33: C -0.05, I -0.139, W -0.046, N -0.117, F -0.06, D -0.026, Q 0.013, A -0.042, P -0.772, L -0.06, H -0.039, T -0.047, G -0.074, Y -0.098, K -0.112, S -0.052
D38: R -0.03, C -0.082, M 0.048, F -0.07, T -0.033, G -0.021, K -0.035, Q -0.026, A -0.01, P -0.105, I -0.077, W -0.085, Y -0.055, S -0.029, E 0.004, V 0.01, L -0.039, N -0.071
M37: D -0.138, E -0.014, C -0.083, N -0.132, Y -0.049, R -0.037, F -0.009, T -0.076, P -0.014, S -0.083, V -0.011, W -0.071, Q -0.07, A -0.063, G -0.215
Y35: T -0.318, F -0.012, A -0.131, H -0.103, W 0.001, Q -0.394, R -0.48, V -0.118, N -0.392, G -0.635, S -0.251, E -0.706, I -0.257, P -0.955, C -0.099, K -0.147, D -0.698, M 0.03
H34: Q -0.041, S -0.004, E -0.007, N 0.02, K -0.018, P -0.188, L -0.106, A -0.037, I -0.372, M -0.044, V -0.27, C -0.141, G -0.014, F -0.102, T -0.084, W -0.06, Y -0.08
Y30: W -0.06, V -0.034, P 0.007, S 0.038, N -0.046, R 0.008, Q 0.029, T -0.001
Q31: C -0.159, A -0.108, P -0.737, H -0.047, V -0.841, I -0.86, S -0.093, R -0.427, G -0.274, N -0.133, K -0.296, F -0.695, D -0.019, W -0.812, L -0.431, Y -0.721, E -0.03
I32: G -0.832, P -0.953, F -0.209, E -0.925, M -0.169, S -1.01, C -0.249, R -1.01, K -0.9, W -0.898, N -0.841, T -0.55, L -0.062, A -0.672, Q -0.931, H -0.876
L40: M -0.134, A -0.967, D -0.897, I -0.037, N -0.888, P -0.893, G -0.993, E -1.03, F -0.043, C -0.509, K -1.02
